# According to article PMC9117480:
# Assays:
# [1] = molecular target: GST mutant encoding FPheK at position-52 (Schistosoma japonicum (printed only as SjGST)); experiment: cross-linking
# [2] = molecular target: GST mutant encoding FSY at position-52 (Schistosoma japonicum (printed only as SjGST)); experiment: cross-linking
Substance,stoichiometry N [1],stoichiometry N [2]
GST mutant encoding FPheK at position-52 (enzyme),2,
GST mutant encoding FSY at position-52 (enzyme),,2
